# Results published in patent US20250304681A1 (BEIJING ECHO BIOTECH, published 2025).
# Key:
# [1] = molecular target: T1, Cyno-RAGE-ECD-His (monkey (cyno), UniProt Q15109 23-342 (human entry)); test: ELISA, antigen with and without NHS-biotin label coated at 4 ug/mL
# T1 construct: also called P38407
# T1 chain: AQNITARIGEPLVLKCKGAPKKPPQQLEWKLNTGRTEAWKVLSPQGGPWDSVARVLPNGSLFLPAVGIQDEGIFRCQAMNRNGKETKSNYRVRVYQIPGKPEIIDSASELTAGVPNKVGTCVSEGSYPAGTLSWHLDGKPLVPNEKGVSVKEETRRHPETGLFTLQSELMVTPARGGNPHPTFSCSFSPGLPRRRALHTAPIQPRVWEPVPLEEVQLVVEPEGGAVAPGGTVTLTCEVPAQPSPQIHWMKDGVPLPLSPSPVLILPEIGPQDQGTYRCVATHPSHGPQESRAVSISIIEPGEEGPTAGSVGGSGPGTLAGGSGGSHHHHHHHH
# [2] = molecular target: T2, Human-RAGE-ECD-His (human, UniProt Q15109 23-342); test: as above
# T2 construct: also called P38405
# [3] = molecular target: T3, Cyno-RAGE-ECD-Fc(IgG1) (monkey (cyno)); test: as above
# T3 construct: also called P38408
# [4] = molecular target: T4, Mouse-RAGE-ECD-His (mouse, UniProt Q62151 23-340); test: as above
# T4 construct: also called P38409
# [5] = molecular target: T5, Mouse-RAGE-ECD-Fc(IgG1) (mouse); test: as above
# T5 construct: also called P38410
# [6] = molecular target: T6, Human-RAGE-ECD-Fc(IgG1) (human); test: ELISA, antigen coated at 2 ug/mL, anti-human kappa+lambda-HRP
# T6 construct: also called P38406
# [7] = molecular target: T7, RAGE(1-404)-3xflag-mCherry (plasmid p318) on 293F cells (human); test: flow cytometry on fixed p318-293F cells, 5 ug scFv in 100 uL, FITC anti-HA detection
# T7 construct: also called p318 cells
# [8] = molecular target: T8, RAGE(1-404)-3xflag-eBFP (plasmid p605) on HepG2 cells; test: flow cytometry on fixed p605-HepG2 cells, 1 ug and 5 ug in 100 uL, FITC anti-HA detection
# T8 construct: also called p605-HepG2 cells; p605 cells
# Method: (5) 1 μg and 5 μg of antiRAGE(A90)-Fc were respectively added to 100 μL of the incubation system to incubate at 4° C. for 2 h. The cells were washed and resuspended with 0.5% BSA diluted in PBS.
# (6) 1 μL of FITC-conjugated antiHA antibody was respectively added to cells without A90-Fc antibody and cells incubated with A90-Fc antibody to incubate at room temperature for 1 h. The cells were washed twice with PBS, and then resuspended with PBS.
# T5 sequence (chain, as listed by the source limits assumed): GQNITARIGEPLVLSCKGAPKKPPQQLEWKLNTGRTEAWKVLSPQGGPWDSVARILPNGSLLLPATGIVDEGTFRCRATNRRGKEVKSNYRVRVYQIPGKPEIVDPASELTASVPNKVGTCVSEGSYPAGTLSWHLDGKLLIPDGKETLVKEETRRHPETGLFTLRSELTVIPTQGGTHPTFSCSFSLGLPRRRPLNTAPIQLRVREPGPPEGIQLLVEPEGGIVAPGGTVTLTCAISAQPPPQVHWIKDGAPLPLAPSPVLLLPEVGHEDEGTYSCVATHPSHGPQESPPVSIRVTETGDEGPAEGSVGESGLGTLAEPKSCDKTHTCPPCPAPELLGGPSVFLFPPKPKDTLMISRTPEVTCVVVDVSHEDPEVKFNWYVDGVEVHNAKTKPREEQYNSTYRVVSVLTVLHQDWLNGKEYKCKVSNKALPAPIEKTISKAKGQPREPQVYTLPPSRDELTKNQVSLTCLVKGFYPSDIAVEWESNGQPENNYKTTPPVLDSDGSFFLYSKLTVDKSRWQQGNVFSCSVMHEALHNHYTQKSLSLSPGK
# T4 sequence (Q62151 other isoform, or with tags, fused parts or gaps): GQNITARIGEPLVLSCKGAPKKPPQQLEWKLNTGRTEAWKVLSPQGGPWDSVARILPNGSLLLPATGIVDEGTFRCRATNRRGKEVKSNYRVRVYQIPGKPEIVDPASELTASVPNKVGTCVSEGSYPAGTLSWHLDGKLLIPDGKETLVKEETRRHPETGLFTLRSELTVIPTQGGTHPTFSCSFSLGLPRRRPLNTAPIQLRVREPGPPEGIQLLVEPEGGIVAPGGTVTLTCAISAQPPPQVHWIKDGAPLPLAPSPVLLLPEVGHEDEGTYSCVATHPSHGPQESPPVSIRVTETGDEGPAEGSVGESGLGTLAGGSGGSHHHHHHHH
binder,measurement,setting,value
"h11E6.16 (antibody, human IgG1, kappa, V domains shown, also called h11E6.16 antibody (P38411); P38411) VH: EIQLVQSGAEVKKPGASVKVSCKASGYTFTNFGMNWVRQAPGQGLEWMGYINTNTGESIYSEEFKGRFTFTLDTSTSTAYMELSSLRSEDTAVYFCARSRMVTAYGMDYWGQGTSVTVSS VL: EIVMTQSPATLSLSPGERATLSCKASQNVGTAVAWYQQKPGQSPRLLIFSASNRYTGVPARFSGSGSGTDFTLTISSLQSEDFAVYFCQQYSSYPLTFGQGTKLEIKR",binding result,[1],binds
same,binding result,[2],binds
same,binding result,[3],binds
same,binding result,[4],binds
same,binding result,[5],binds
same,binding result,[6],binds
"6xHis-antiRAGE(A90)-scFv-G4S-HA (scFv, also called antiRAGE scFv antibody; antiRAGE-scFv) scFv: HHHHHHQVQLVQSGAEVKKPGSSVKVSCKASGGTFNNYAINWARQAPGQGLEWMGRIVPFFDVTNYAQKFQGRVTITADKSTSTAYMELSSLRSEDTAIYYCAIGSFNWNSGAFDIWGQGTPVTVSSGGGGSGGGGSGGGGSNIQLTQSPSTLSASVGDRVTITCRASQSISSWLAWYQQKPGKAPKLLIYQASSLESGVPSRFSGSGSGTEFTLTIRSLQPEDFAVYFCQQYKDYPLTFGGGTKVDIKGGGGSYPYDVPDYA",binding result,[7],binds
"antiRAGE(A90)-Fc (antibody, human IgG1, kappa, also called antiRAGE(A90)-Fc-G4S-HA; antiRAGE-Fc-G4S-HA-ALFA) heavy: not shown light: NIQLTQSPSTLSASVGDRVTITCRASQSISSWLAWYQQKPGKAPKLLIYQASSLESGVPSRFSGSGSGTEFTLTIRSLQPEDFAVYFCQQYKDYPLTFGGGTKVDIKRTVAAPSVFIFPPSDEQLKSGTASVVCLLNNFYPREAKVQWKVDNALQSGNSQESVTEQDSKDSTYSLSSTLTLSKADYEKHKVYACEVTHQGLSSPVTKSFNRGEC",binding result,[8],binds
